# Laboratory results as given in US11324803B2, “Methods and compositions for treatment of Gaucher Disease via modulation of C5a receptor” (Children's Hospital Medical Center, priority 2015, dated 2022).
# B1: Thr Leu Gln Lys Lys Ile Glu Glu Ile Ala Ala Lys Tyr Lys His Ser Val Val Lys Lys Cys Cys Tyr Asp Gly Ala Ala Val Asn Asn Asp Glu Thr Cys Glu Gln Arg Ala Ala Arg Ile Ser Leu Gly Pro Arg Cys Ile Lys Ala … (protein)
# chain: TLQKKIEEIAAKYKHSVVKKCCYDGAAVNNDETCEQRAARISLGPRCIKAFTECCVVASQLRANISFKRS
# modifications: mutant C5a-(1-66, Cys27A1a) -A8B-Del. 71-73 of human C5a
# notes: positions 27 and 68-71 of human C5a mutated and positions 72-74 deleted
# Assays:
# human C5aR2 (C5L2) = human C5aR2 (C5L2) (Homo sapiens, UniProt Q9P296); settings: cited from earlier work
# C5aR1 [1] = target: T1, C5aR1 (Homo sapiens, UniProt P21730); settings: cited from earlier work
# T1 sequence (P21730 1-350): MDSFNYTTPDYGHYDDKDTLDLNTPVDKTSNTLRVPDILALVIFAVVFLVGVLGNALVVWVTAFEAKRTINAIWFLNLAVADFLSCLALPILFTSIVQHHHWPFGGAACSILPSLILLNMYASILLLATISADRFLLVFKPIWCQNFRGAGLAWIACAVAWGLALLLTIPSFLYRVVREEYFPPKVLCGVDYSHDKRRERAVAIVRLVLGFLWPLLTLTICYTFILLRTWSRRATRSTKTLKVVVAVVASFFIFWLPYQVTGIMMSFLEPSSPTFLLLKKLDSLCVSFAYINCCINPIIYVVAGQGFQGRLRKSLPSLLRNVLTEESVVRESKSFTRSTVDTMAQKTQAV
# mouse C5aR1 = target: T2, mouse C5aR1 (Mus musculus, UniProt P30993); settings: cited from earlier work
# T2 sequence (P30993 1-351): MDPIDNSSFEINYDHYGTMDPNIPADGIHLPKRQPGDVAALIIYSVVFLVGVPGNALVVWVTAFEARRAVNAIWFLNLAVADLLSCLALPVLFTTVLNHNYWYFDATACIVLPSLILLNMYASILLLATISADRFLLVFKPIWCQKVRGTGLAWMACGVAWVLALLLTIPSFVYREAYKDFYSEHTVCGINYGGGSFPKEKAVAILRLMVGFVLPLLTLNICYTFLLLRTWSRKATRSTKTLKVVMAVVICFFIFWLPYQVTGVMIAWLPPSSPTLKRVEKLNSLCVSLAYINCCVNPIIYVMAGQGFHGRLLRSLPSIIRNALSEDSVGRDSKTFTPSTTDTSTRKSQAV
# [2] = test system: C5a-induced effector functions; settings: cited from earlier work
# mouse C5aR2 (C5L2) = target: T3, mouse C5aR2 (C5L2) (Mus musculus, UniProt Q8BW93); settings: cited from earlier work
# T3 sequence (Q8BW93 1-344): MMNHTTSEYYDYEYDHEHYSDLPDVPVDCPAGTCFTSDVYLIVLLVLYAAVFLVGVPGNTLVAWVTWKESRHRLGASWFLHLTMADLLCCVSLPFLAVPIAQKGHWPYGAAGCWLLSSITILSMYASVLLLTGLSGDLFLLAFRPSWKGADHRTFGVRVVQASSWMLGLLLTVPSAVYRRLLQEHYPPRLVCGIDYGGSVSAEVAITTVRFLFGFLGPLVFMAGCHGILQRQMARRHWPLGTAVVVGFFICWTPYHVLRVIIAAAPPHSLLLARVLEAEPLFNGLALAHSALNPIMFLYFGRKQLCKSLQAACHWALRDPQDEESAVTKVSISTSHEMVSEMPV
# C5aR1 [3] = target: T1, C5aR1; test: GC-IC-induced CCL18 and pro-inflammatory cytokine production in CBE-treated human MΦ-like cell line U937 with C5aRA; format: cell-based; design: endogenous in cells; host or cells: U937 (human macrophage-like cell line), CBE-treated
# [4] = CBE-treated U937 cells, GC-IC stimulation, ELISA
# Sequence of human C5aR2 (C5L2) (Q9P296 whole entry): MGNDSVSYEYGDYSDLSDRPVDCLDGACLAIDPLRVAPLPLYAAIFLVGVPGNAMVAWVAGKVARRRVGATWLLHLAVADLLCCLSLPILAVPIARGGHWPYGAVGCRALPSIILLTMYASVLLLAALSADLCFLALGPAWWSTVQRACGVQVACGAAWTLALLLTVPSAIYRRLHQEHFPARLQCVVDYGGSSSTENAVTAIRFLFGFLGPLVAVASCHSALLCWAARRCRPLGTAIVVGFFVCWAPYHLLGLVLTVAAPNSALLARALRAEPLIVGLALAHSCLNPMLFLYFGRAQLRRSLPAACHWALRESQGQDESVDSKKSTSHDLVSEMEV
molecule,measurement,setting,value
B1,affinity to bind human C5aR2 (C5L2),human C5aR2 (C5L2),high affinity
same,affinity to bind human C5aR1,C5aR1 [1],high affinity
same,affinity to bind mouse C5aR1,mouse C5aR1,high affinity
same,C5a-induced effector functions,[2],inhibit
same,affinity to bind mouse C5aR2 (C5L2),mouse C5aR2 (C5L2),high affinity
same,GC-IC-induced production of CCL18,C5aR1 [3]; [4],abolished
same,GC-IC-induced production of IL1β,C5aR1 [3]; [4],abolished
same,GC-IC-induced production of IL6,C5aR1 [3]; [4],abolished
same,GC-IC-induced production of IL23,C5aR1 [3]; [4],abolished
same,GC-IC-induced production of TNFα,C5aR1 [3]; [4],abolished
same,GC-IC-induced production of CCL18,"C5aR1 [3]; CBE-treated U937 cells, GC-IC stimulation, ELISA, listed as C5aR antagonist A8^Δ71-73",marked reduction
same,"MΦs, DC and T cells mediated immune inflammation",C5aR1 [3]; human model of Gaucher disease,significantly reduces
